Measured values published in paper PMC5737516.
Residue numbers refer to the chain shown, from its start. Read-outs that look alike come from different tables or passages of the source.

T1: M1BP (UniProt Q9VHM3 1-418)
T1 sequence: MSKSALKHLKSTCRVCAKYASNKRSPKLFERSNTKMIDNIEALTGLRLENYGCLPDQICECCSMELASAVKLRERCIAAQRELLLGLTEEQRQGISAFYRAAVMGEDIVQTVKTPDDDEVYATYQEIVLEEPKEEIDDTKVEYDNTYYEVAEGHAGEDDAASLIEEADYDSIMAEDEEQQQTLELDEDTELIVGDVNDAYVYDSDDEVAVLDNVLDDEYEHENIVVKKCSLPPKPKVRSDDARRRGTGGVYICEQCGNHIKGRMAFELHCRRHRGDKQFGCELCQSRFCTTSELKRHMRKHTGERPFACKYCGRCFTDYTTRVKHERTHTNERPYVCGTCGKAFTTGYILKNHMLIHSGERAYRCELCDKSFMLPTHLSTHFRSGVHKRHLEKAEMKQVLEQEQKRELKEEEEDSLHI

T2: M1BP;TRF2 (Drosophila melanogaster?;Drosophila …, UniProt Q9VHM3;Q9XZD9 1-418;1-632, |)
T2 sequence 1: T1 sequence
T2 sequence 2: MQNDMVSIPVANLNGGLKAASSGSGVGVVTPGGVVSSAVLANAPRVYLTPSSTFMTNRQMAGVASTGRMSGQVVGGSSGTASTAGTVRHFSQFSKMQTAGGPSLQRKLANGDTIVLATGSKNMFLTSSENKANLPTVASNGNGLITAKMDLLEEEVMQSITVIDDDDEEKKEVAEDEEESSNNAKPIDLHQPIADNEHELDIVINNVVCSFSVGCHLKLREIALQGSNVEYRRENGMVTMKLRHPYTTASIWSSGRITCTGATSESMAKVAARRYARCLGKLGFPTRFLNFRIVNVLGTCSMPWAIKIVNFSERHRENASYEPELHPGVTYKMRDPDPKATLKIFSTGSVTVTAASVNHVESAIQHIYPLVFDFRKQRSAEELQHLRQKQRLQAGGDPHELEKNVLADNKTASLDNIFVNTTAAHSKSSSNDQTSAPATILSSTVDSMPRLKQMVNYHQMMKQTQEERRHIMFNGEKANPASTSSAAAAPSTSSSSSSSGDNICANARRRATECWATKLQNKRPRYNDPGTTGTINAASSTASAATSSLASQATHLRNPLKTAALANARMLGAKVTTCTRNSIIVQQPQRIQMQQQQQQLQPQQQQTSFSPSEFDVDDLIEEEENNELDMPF

B1: RpLP1 wtMotif1 (-36 to +14) (dsDNA)
DNA 1: TTCGTCATCGGCGCGGTCACACTGCATATCAACTGCTCTTTCCGGTTTAG
DNA 2: CTAAACCGGAAAGAGCAGTTGATATGCAGTGTGACCGCGCCGATGACGAA
B2: RpLP1 mutMotif1 (-36 to +14) (dsDNA)
DNA 1: B1 DNA 1 with G15C, C20G, C22G
DNA 2: B1 DNA 2 with G29C, G31C, C36G
B3: RpL30 wtMotif1 (-52 to +8) (dsDNA)
DNA 1: CCCGTCGGTCACACCAACACAAACGTGGTACCCATTTCCGCCTGTTCTTCCTCTTTCTTT
DNA 2: AAAGAAAGAGGAAGAACAGGCGGAAATGGGTACCACGTTTGTGTTGGTGTGACCGACGGG
B4: RpL30 mutMotif1 (-52 to +8) (dsDNA)
DNA 1: B3 DNA 1 with G7C, C12G, C14G
DNA 2: B3 DNA 2 with G47C, G49C, C54G

Assays:
Assay in all cases: pull-down
M1BP = biological target: T1, M1BP
M1BP;TRF2 [1] = biological target: T2, M1BP;TRF2
M1BP;TRF2 [2] = biological target: T2, M1BP;TRF2; remark: listed apart in the source

Binder | binding result (M1BP) | binding result (M1BP;TRF2 [1]) | binding result (M1BP;TRF2 [2])
B1 | binds | binds | –
B2 | no binding | – | no binding
B3 | binds | binds | –
B4 | no binding | – | no binding
